As a reminder, the Tm is the temperature at the midpoint of the melting transition.

We go through 1 protein from FireProtDB (doi:10.1016/s0167-4838(98)00243-x).

The conditions of the series: Streptomyces sp. (strain N174), pH 7, Thermal, sodium phosphate 50 mM, whole UniProt chain shown.
Where [1] appears, read: CD, transition: 3, reversible: yes(85%).
Setting [2] is: Fluorescence, reversible: yes(75%).

B1: Chitosanase wild type, P33665 (protein)
chain: MHSQHRTARIALAVVLTAIPASLATAGVGYASTQASTAVKAGAGLDDPHKKEIAMELVSSAENSSLDWKAQYKYIEDIGDGRGYTGGIIGFCSGTGDMLELVQHYTDLEPGNILAKYLPALKKVNGSASHSGLGTPFTKDWATAAKDTVFQQAQNDERDRVYFDPAVSQAKADGLRALGQFAYYDAIVMHGPGNDPTSFGGIRKTAMKKARTPAQGGDETTYLNAFLDARKAAMLTEAAHDDTSRVDTEQRVFLKAGNLDLNPPLKWKTYGDPYVINS
Consider B1, for which, under setting [1], the Tm is 42.7 °C and the “unfolding enthalpy (van 't Hoff)” value was determined as 120 kcal/mol. Besides, under setting [2], the Tm came out at 43.2 °C and the “unfolding enthalpy (van 't Hoff)” value turned out to be 161 kcal/mol.
